{"source": "patent US20260242478A1", "about": "(published 2026)", "binders": {"B1": {"name": "Phage-3336 (peptide)", "peptide": "IVDICKPSWMCEGF", "modifications": "cysteine pairing not given here; also: fused to pIII of bacteriophage", "notes": "not shown: fused to pIII of the bacteriophage"}, "B2": {"name": "Phage-3337 (peptide)", "peptide": "LEVLCKPTWMCVGF", "modifications": "cysteine pairing not given here; also: fused to pIII of bacteriophage", "notes": "as for B1"}, "B3": {"name": "Phage-3338 (peptide)", "peptide": "VDALCRPSWMCIGF", "modifications": "cysteine pairing not given here; also: fused to pIII of bacteriophage", "notes": "as for B1"}, "B4": {"name": "Phage-3321 (peptide)", "peptide": "WVIKCVPSWMCAGL"}, "B5": {"name": "Phage-3320 (peptide)", "peptide": "VGHVCIPSWMCDGM"}, "B6": {"name": "Phage-3335 (peptide)", "peptide": "EGRYCVPEWMCQGF"}, "B7": {"name": "Phage-3323 (peptide)", "peptide": "AGSMCTPMWMCTGF"}, "B8": {"name": "Phage-3328 (peptide)", "peptide": "VAPICRPSWMCEWL"}, "B9": {"name": "Phage-3331 (peptide)", "peptide": "VNELCIPSWMCNGF"}, "B10": {"name": "Phage-3322 (peptide)", "peptide": "IMPKCVPSWMCTGL"}, "B11": {"name": "Phage-3333 (peptide)", "peptide": "IEFLCKPMWMCNGF"}, "B12": {"name": "Phage-3326 (peptide)", "peptide": "QVVMCTPEWMCSGF"}, "B13": {"name": "Phage-3325 (peptide)", "peptide": "MYIHCVPEWMCRGF"}, "B14": {"name": "Phage-3330 (peptide)", "peptide": "MEAMCRPAWMCAGF", "modifications": "cysteine pairing not given here; also: fused to pIII of bacteriophage"}, "B15": {"name": "Phage-3324 (peptide)", "peptide": "VGPRCVPEWMCIGL"}, "B16": {"name": "Phage-3334 (peptide)", "peptide": "IDRMCKPVWMCEGF"}, "B17": {"name": "Phage-3332 (peptide)", "peptide": "PELWCVPSWMCEGF"}, "B18": {"name": "Phage-3327 (peptide)", "peptide": "IGVVCKPLWMCHGF"}, "B19": {"name": "Phage-3329 (peptide)", "peptide": "VDRLCSPAWMCLGF"}}, "note": "Where no end group is shown, it is not given here."}
{"biological_target": "T1, PSMA Fab (006 PSMA Fab) (biotinylated (site not stated))", "T1 construct": "also called Anti-PSMA Fab; anti-PSMA Fab", "assay": "clonal phage ELISA on biotinylated PSMA Fab captured on neutravidin, anti-M13-HRP detection;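 further: crude clonal phage supernatants added to wells preincubated with PSMA antigen in blocking buffer or with blocking buffer alone, brief binding period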"}
{"binder": "B1", "Phage binding ELISA signal, Anti-PSMA Fab": 1.84}
{"binder": "B2", "Phage binding ELISA signal, Anti-PSMA Fab": 1.84}
{"binder": "B3", "Phage binding ELISA signal, Anti-PSMA Fab": 1.84}
{"biological_target": "T1, PSMA Fab (006 PSMA Fab)", "assay": "clonal phage ELISA on captured PSMA Fab, wells pre-incubated with PSMA antigen as competitor", "method": "(§1) Clonal phage were harvested as crude supernatants and screened via standard ELISAs. […] Prior to the addition of clonal phage. wells were incubated with blocking buffer and PSMA antigen or blocking buffer alone. Without washing or aspirating, clonal phage supernatants were then added to the wells and incubated for a short time. Wells were then washed followed by detection of bound phage using a horse radish conjugated anti-M13 antibody."}
{"binder": "B1", "phage binding ELISA signal (Anti-PSMA Fab with PSMA)": 0.0649}
{"binder": "B2", "phage binding ELISA signal (Anti-PSMA Fab with PSMA)": 0.078}
{"binder": "B3", "phage binding ELISA signal (Anti-PSMA Fab with PSMA)": 0.0688}
{"biological_target": "T2, PSMA Fab", "T2 construct": "In the panning ELISA the PSMA Fab was biotinylated and captured on neutravidin coated plates; also called Anti-PSMA Fab; 006 PSMA Fab", "assay": "clonal phage ELISA on biotinylated PSMA Fab captured on neutravidin, anti-M13 HRP detection, blocking buffer alone", "method": "as §1"}
{"binder": "B4", "Phage binding ELISA signal, Anti-PSMA Fab": 1.85}
{"binder": "B5", "Phage binding ELISA signal, Anti-PSMA Fab": 1.86}
{"biological_target": "T3, PSMA Fab (biotinylated (site not stated))", "T3 construct": "Biotinylated PSMA Fab captured on neutravidin coated plates in the phage ELISA; also called Anti-PSMA Fab; 006 PSMA Fab", "assay": "clonal phage ELISA on captured PSMA Fab, wells pre-incubated with PSMA antigen as competitor; anti-M13 HRP detection"}
{"binder": "B6", "phage binding ELISA signal": 0.0864}
{"binder": "B7", "phage binding ELISA signal": 0.0744}
{"binder": "B8", "phage binding ELISA signal": 0.0837}
{"binder": "B9", "phage binding ELISA signal": 0.0845}
{"binder": "B10", "phage binding ELISA signal": 0.153}
{"binder": "B11", "phage binding ELISA signal": 0.0658}
{"binder": "B12", "phage binding ELISA signal": 0.0905}
{"binder": "B13", "phage binding ELISA signal": 0.0941}
{"binder": "B14", "phage binding ELISA signal": 0.0662}
{"binder": "B15", "phage binding ELISA signal": 0.0954}
{"binder": "B16", "phage binding ELISA signal": 0.123}
{"binder": "B17", "phage binding ELISA signal": 0.0867}
{"binder": "B18", "phage binding ELISA signal": 0.0971}
{"binder": "B19", "phage binding ELISA signal": 0.0785}
{"biological_target": "T3, PSMA Fab", "assay": "clonal phage ELISA on biotinylated PSMA Fab captured on neutravidin plates, blocking buffer alone; anti-M13 HRP detection", "method": "as §1"}
{"binder": "B6", "phage binding ELISA signal": 1.84}
{"binder": "B7", "phage binding ELISA signal": 1.85}
{"binder": "B8", "phage binding ELISA signal": 1.84}
{"binder": "B9", "phage binding ELISA signal": 1.84}
{"binder": "B10", "phage binding ELISA signal": 1.85}
{"binder": "B11", "phage binding ELISA signal": 1.84}
{"binder": "B12", "phage binding ELISA signal": 1.85}
{"binder": "B13", "phage binding ELISA signal": 1.85}
{"binder": "B14", "phage binding ELISA signal": 1.84}
{"binder": "B15", "phage binding ELISA signal": 1.85}
{"binder": "B16", "phage binding ELISA signal": 1.84}
{"binder": "B17", "phage binding ELISA signal": 1.84}
{"binder": "B18", "phage binding ELISA signal": 1.85}
{"binder": "B19", "phage binding ELISA signal": 1.84}
{"biological_target": "T2, PSMA Fab", "assay": "clonal phage ELISA on biotinylated PSMA Fab captured on neutravidin, anti-M13 HRP detection, wells pre-incubated with saturating PSMA antigen as competitor", "method": "as §1"}
{"binder": "B4", "Phage binding ELISA signal, Anti-PSMA Fab with PSMA antigen": 0.0907}
{"binder": "B5", "Phage binding ELISA signal, Anti-PSMA Fab with PSMA antigen": 0.0683}
